Assays:
[1] = biological target: T1, human CD3 on T cells (Jurkat cells; human peripheral blood CD4+ and CD8+ T cells) (human, UniProt P07766 23-207); test: flow cytometry, Jurkat cells
T1 construct: whole, on cells; also called CD3ε
Method: Jurkat cells in the logarithmic growth phase were added with 200 μg/mL murine IgG (Jackson ImmunoResearch, 115-005-03) and incubated on ice for 30 min. […] 50 μL/well Alexa Fluro647 labeled goat anti-human IgG Fc (1:300 dilution) was added to the secondary antibody, incubated on ice for 20 min, 50 μL/well PI was added after washing once, incubated for 5 min, and flow cytometer (BD C6) was used to perform detection.

[2] = biological target: T2, human BCMA on cells (CHO-hBCMA clone 2C2; NCI-H929; RPMI-8226) (human, UniProt Q02223 1-184); test: flow cytometry, NCI-H929 cells
T2 construct: whole, on cells; also called Human BCMA-CHO; CHO-hBCMA-2C2
T2 sequence (looked up): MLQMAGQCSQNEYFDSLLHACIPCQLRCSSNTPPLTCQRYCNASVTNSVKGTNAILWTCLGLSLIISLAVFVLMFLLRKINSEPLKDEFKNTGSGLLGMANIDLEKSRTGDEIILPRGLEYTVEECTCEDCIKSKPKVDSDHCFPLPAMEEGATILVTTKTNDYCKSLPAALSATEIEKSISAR
Method: (§1) The primary antibody was washed off, 50 μL/well Alexa Fluro647 labeled goat anti-human IgG Fc (1:300 dilution) was added, incubated on ice for 20 min, 50 μL/well PI was added after washing once, incubated for 5 min, and flow cytometer was used to perform detection.

[3] = biological target: T2, human BCMA on cells (CHO-hBCMA clone …); test: flow cytometry, RPMI-8226 cells
Method: as §1

[4] = biological target: T2, human BCMA on cells (CHO-hBCMA clone …); test: flow cytometry, CHO-human BCMA cells
Method: (§2) 50 μL/well Alexa Fluro647 labeled goat anti-human IgG Fc (1:300 dilution) was added to the secondary antibody, incubated on ice for 20 min, 50 μL/well PI solution (1:300) was added after washing once, incubated for 5 min, and flow cytometer was used to perform detection.

[5] = biological target: T3, cynomolgus monkey BCMA on CHO cells (CHO-cynoBCMA clone 1A2) (cynomolgus monkey, UniProt A0A2K5UD97 1-183); test: flow cytometry, CHO-cynomolgus monkey BCMA cells
T3 construct: whole, on cells; also called Cynomolgus monkey BCMA-CHO; CHO-cynoBCMA-1A2
T3 sequence (A0A2K5UD97 entry or part of it): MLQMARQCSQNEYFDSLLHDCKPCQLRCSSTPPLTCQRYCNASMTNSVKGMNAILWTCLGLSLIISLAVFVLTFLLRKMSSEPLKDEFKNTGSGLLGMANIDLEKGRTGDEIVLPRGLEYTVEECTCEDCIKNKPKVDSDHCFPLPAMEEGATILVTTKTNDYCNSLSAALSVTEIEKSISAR
Method: as §2

[6] = biological target: T1, human CD3 on T cells (Jurkat cells; …); test: flow cytometry, peripheral blood CD4+ T cells (PBMC)
Method: (§3) Fresh human or cynomolgus monkey peripheral blood was taken and PBMC was isolated by Ficoll-Paque Plu (GE, 17-1440-03). […] 50 μL/well Alexa Fluro647 labeled goat anti-human IgG Fc (1:300 dilution) was added to the secondary antibody, ice bath for 20 min, 50 μL/well PI was added after washing once, incubated for 5 min, and flow cytometer (BD C6) was used to perform detection.

[7] = biological target: T1, human CD3 on T cells (Jurkat cells; …); test: flow cytometry, peripheral blood CD8+ T cells (PBMC)
Method: as §3

[8] = biological target: T4, human BCMA recombinant antigen (human, UniProt Q02223 1-53); test: SPR (Biacore T200), antigen amine-coupled to CM5, antibody as analyte, 1:1 model
T4 construct: range 1-53; also called human BCMA recombinant protein
T4 sequence (looked up): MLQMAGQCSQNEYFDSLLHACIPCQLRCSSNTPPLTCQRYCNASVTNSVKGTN
Method: (§4) 10 μg/mL human or cynomolgus monkey BCMA or CD3εγ recombinant antigen was bound to a CM5 chip (GE healthcare) by amino coupling, controlling the amount of antigen bound to approximately 200 RU. After the baseline plateau, gradient-diluted antibodies (from 10 μg/mL, 2-fold dilutions for 7 gradients) flowed through the chip at a flow rate of 30 μL/min for a binding time of 350 seconds and a dissociation time of 600 seconds. Kinetic constants were fitted using Biacore T200 evaluation software with a 1:1 binding model.

[9] = biological target: T5, cynomolgus monkey BCMA recombinant antigen (cynomolgus monkey, UniProt A0A2K5UD97 1-51); test: as above
T5 construct: range 1-52
T5 sequence (A0A2K5UD97 entry or part of it): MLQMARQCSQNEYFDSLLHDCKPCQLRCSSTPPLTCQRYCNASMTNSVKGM
Method: as §4

[10] = biological target: T6, cynomolgus monkey CD3εγ-Fc heterodimer (cynomolgus monkey); test: as above
T6 chain 1: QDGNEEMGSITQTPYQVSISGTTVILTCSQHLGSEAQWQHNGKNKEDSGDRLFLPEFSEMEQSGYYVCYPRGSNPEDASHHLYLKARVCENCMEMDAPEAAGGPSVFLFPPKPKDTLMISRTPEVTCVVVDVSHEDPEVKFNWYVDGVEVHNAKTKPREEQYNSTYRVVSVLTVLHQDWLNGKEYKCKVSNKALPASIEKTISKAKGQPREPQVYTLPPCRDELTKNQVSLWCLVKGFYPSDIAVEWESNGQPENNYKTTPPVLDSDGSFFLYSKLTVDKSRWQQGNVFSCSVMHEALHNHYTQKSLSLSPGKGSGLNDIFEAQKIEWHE
T6 chain 2: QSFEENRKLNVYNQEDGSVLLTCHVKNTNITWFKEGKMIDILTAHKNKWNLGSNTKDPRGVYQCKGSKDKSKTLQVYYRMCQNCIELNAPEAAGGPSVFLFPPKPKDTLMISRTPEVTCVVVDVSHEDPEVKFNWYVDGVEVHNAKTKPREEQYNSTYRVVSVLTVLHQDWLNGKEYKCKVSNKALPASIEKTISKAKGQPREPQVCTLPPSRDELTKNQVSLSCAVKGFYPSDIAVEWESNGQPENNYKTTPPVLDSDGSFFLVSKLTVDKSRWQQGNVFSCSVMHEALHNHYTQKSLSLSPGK
Method: as §4

[11] = biological target: T4, human BCMA recombinant antigen; test: competition ELISA, coated human BCMA, antibody varied, then biotinylated human APRIL at 240 ng/mL, SA-HRP
Method: 1 μg/mL human BCMA recombinant antigen was prepared with pH 9.6 carbonic acid buffer, added to a maxisorp96-well plate, and coated overnight at 4° C. After blocking with 5% skim milk/PBS for 1 h at room temperature, 50 μL antibody per well (4-fold dilution from 30 μg/mL for a total of 10 gradients) was added and incubated for 30 min at room temperature. […] After 3 washes with 0.05% PBST (PBS+0.05% Tween-20) and PBS respectively, 100 μL of SA-HRP (diluted 1:8000) was added to each well and incubated at room temperature for 45 min. Washing 3 times with 0.05% PBST and PBS respectively, 100 μL TMB color-developing solution was added into each well, after 10 min, 50 μL concentrated sulfuric acid was added into each well to stop the reaction, read OD450 nm by a microplate reader, and perform three-parameter fitting curve using Graphpad software.

T1 sequence (P07766 23-207): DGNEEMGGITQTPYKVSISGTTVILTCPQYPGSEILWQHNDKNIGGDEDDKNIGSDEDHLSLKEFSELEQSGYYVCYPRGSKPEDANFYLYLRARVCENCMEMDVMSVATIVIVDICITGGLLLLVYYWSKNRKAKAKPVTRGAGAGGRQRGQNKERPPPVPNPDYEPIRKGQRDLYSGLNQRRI

B1: BCMA×CD3 κλ003 (bispecific antibody, human IgG4 S228P, kappa, lambda)
light 1: DIVLTQSPASLAVSPGQRATITCRASKSVSTSGYSYMHWYQKKPGQPPKLLIYLASNLESGVPARFSGSGSGTDFTLTINPVEAEDTANYYCQHSRELPWTFGQGTKVEIKRTVAAPSVFIFPPSDEQLKSGTASVVCLLNNFYPREAKVQWKVDNALQSGNSQESVTEQDSKDSTYSLSSTLTLSKADYEKHKVYACEVTHQGLSSPVTKSFNRGEC
heavy 1: QVQLVQSGSELKKPGASVKVSCKASGYIFTNFGMNWVREAPGQGLEWMGWINTYTGEQIYADGFTGRFVFSLDTSASTAYLQISSLKAEDTAVYFCARGEIYYGYDVGFVYWGQGTLVTVSSASTKGPSVFPLAPCSRSTSESTAALGCLVKDYFPEPVTVSWNSGALTSGVHTFPAVLQSSGLYSLSSVVTVPSSSLGTKTYTCNVDHKPSNTKVDKRVESKYGPPCPPCPAPEFEGGPSVFLFPPKPKDTLMISRTPEVTCVVVDVSQEDPEVQFNWYVDGVEVHNAKTKPREEQFNSTYRVVSVLTVLHQDWLNGKEYKCKVSNKGLASSIEKTISKAKGQPREPQVCTLPPSQEEMTKNQVSLSCAVKGFYPSDIAVEWESNGQPENNYKTTPPVLDSDGSFFLVSKLTVDKSRWQEGNVFSCSVMHEALHNHYTQKSLSLSLGK
light 2: QAVVTQEPSLTVSPGGTVTLTCRSSTGAVTTSNYANWVQEKPGQAPRGLIGGTNKRAPWTPARFSGSLLGGKAALTITGAQAEDEAEYYCVLWYSNLWVFGGGTKLTVLGQPKAAPSVTLFPPSSEELQANKATLVCLISDFYPGAVTVAWKADSSPVKAGVETTTPSKQSNNKYAASSYLSLTPEQWKSHRSYSCQVTHEGSTVEKTVAPTECS
heavy 2: EVQLVESGGGLVQPGGSLRLSCAASGFTFNTYAMNWVRKAPGKGLEWVGRIRSKYNNYATYYADSVKDRFTISRDDSKNSLYLQMNSLKTEDTAVYYCVRHGNFGNSYVSWFAYWGQGTLVTVSSASTKGPSVFPLAPCSRSTSESTAALGCLVKDYFPEPVTVSWNSGALTSGVHTFPAVLQSSGLYSLSSVVTVPSSSLGTKTYTCNVDHKPSNTKVDKRVESKYGPPCPPCPAPEFEGGPSVFLFPPKPKDTLMISRTPEVTCVVVDVSQEDPEVQFNWYVDGVEVHNAKTKPREEQFNSTYRVVSVLTVLHQDWLNGKEYKCKVSNKGLASSIEKTISKAKGQPREPQVYTLPPCQEEMTKNQVSLWCLVKGFYPSDIAVEWESNGQPENNYKTTPPVLDSDGSFFLYSKLTVDKSRWQEGNVFSCSVMHEALHNHYTQKSLSLSLGK
EC50 [1]: 66 nM
EC50 [2]: 34 nM
EC50 [3]: 34 nM
EC50 [4]: 16 nM
EC50 [5]: 3 nM
EC50 [6]: 87 nM
EC50 [7]: 97 nM
Kd [8]: 1.3 nM
Kd [9]: 0.16 nM
Kd [10]: 43 nM
IC50 (read off the curve) [11]: ~8 nM

B2: BCMA×CD3 κλ004 (bispecific antibody, human IgG4 S228P, kappa, lambda)
light 1: DIVLTQSPASLAVSPGQRATITCRASKSVTTSGYSYIHWYQKKPGQPPKLLIYLASDLEAGVPARFSGSGSGTDFTLTINPVEAEDTANYYCQHSRELPWTFGQGTKVEIKRTVAAPSVFIFPPSDEQLKSGTASVVCLLNNFYPREAKVQWKVDNALQSGNSQESVTEQDSKDSTYSLSSTLTLSKADYEKHKVYACEVTHQGLSSPVTKSFNRGEC
heavy 1: QVQLVQSGSELKKPGASVKVSCKASGYIFTNFGMNWVREAPGQGLEWMGWINTYTGEQIYADGFTGRFVFSLDTSASTAYLQISSLKAEDTAVYFCARGEIYYGYDVGFVYWGQGTLVTVSSASTKGPSVFPLAPCSRSTSESTAALGCLVKDYFPEPVTVSWNSGALTSGVHTFPAVLQSSGLYSLSSVVTVPSSSLGTKTYTCNVDHKPSNTKVDKRVESKYGPPCPPCPAPEFEGGPSVFLFPPKPKDTLMISRTPEVTCVVVDVSQEDPEVQFNWYVDGVEVHNAKTKPREEQFNSTYRVVSVLTVLHQDWLNGKEYKCKVSNKGLASSIEKTISKAKGQPREPQVCTLPPSQEEMTKNQVSLSCAVKGFYPSDIAVEWESNGQPENNYKTTPPVLDSDGSFFLVSKLTVDKSRWQEGNVFSCSVMHEALHNHYTQKSLSLSLGK
light 2: QAVVTQEPSLTVSPGGTVTLTCRSSTGAVTTSNYANWVQEKPGQAPRGLIGGTNKRAPWTPARFSGSLLGGKAALTITGAQAEDEAEYYCVLWYSNLWVFGGGTKLTVLGQPKAAPSVTLFPPSSEELQANKATLVCLISDFYPGAVTVAWKADSSPVKAGVETTTPSKQSNNKYAASSYLSLTPEQWKSHRSYSCQVTHEGSTVEKTVAPTECS
heavy 2: EVQLVESGGGLVQPGGSLRLSCAASGFTFNTYAMNWVRKAPGKGLEWVGRIRSKYNNYATYYADSVKDRFTISRDDSKNSLYLQMNSLKTEDTAVYYCVRHGNFGNSYVSWFAYWGQGTLVTVSSASTKGPSVFPLAPCSRSTSESTAALGCLVKDYFPEPVTVSWNSGALTSGVHTFPAVLQSSGLYSLSSVVTVPSSSLGTKTYTCNVDHKPSNTKVDKRVESKYGPPCPPCPAPEFEGGPSVFLFPPKPKDTLMISRTPEVTCVVVDVSQEDPEVQFNWYVDGVEVHNAKTKPREEQFNSTYRVVSVLTVLHQDWLNGKEYKCKVSNKGLASSIEKTISKAKGQPREPQVYTLPPCQEEMTKNQVSLWCLVKGFYPSDIAVEWESNGQPENNYKTTPPVLDSDGSFFLYSKLTVDKSRWQEGNVFSCSVMHEALHNHYTQKSLSLSLGK
EC50 [1]: 61 nM
EC50 [2]: 36 nM
EC50 [3]: 39 nM
EC50 [4]: 22 nM
EC50 [5]: 3 nM
EC50 [6]: 77 nM
EC50 [7]: 84 nM
Kd [8]: 1 nM
Kd [9]: 0.12 nM
Kd [10]: 43 nM
IC50 (read off the curve) [11]: ~5 nM
